Measurements: patent US20120196804A1 (INDIANA UNIVERSITY RESEARCH AND TECHNOLOGY, published 2012)

What was measured:
glucagon receptor = assay: cell-based or functional assay
GLP-1 receptor = assay: cell-based or functional assay

Binder | cAMP Induction, EC50 (luciferase reporter, HEK293) (glucagon receptor) | cAMP Induction, EC50 (luciferase reporter, HEK293) (GLP-1 receptor)
HSQGTFTSDYSKYLDSRRAQDFVQWLMNTGPSSGAPPPS (C-terminal amide) [Glucagon-Cex] | 0.25 nM | 2.75 nM
HSQGTFTSDYSRYLDSRRAQDFVQWLMNK [Glucagon R12 K29] | 0.81 nM | 0.41 nM
HSQGTFTSDYSKYLDSRRAQDFVQWLMNTKRNR [Oxyntomodulin KRNR] | 2.77 nM | 3.21 nM
